Laboratory results published in the supplement of paper PMC9112550, “Optimization of the antimicrobial peptide Bac7 by deep mutational scanning” (BMC Biology, 2022).

Test system: Escherichia coli TOP10
Assay: shrunken log2 fold change of peptide-encoding DNA abundance (4.5 h post-induction vs induction); higher = less antimicrobial activity (less host growth inhibition)
Settings: time post-induction: 4.5 h; library: site-saturation at positions 5, 18, 19, 20
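Note: peptides expressed intracellularly from a pBAD plasmid library in pooled LB shake-flask culture, induced with 0.3% L-arabinose, DNA abundance read by NGS, three biological replicates, DESeq2 with apeglm shrinkage.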

Sequence	shrunken log2 fold change
RRIRPRPPRLPRPRPRPHTSPRP	-0.622
RRIRIRPPRLPRPRPRPEFDPRP	0.0326
RRIRIRPPRLPRPRPRPTNSPRP	-0.827
RRIRIRPPRLPRPRPRPEWQPRP	0.118
RRIRPRPPRLPRPRPRPPVGPRP	0.557
RRIRRRPPRLPRPRPRPFQQPRP	0.282
RRIRFRPPRLPRPRPRPEKIPRP	0.102
RRIRMRPPRLPRPRPRPHNMPRP	-0.243
RRIRTRPPRLPRPRPRPFPLPRP	-0.147
RRIRMRPPRLPRPRPRPTWCPRP	-0.0681
RRIRLRPPRLPRPRPRPKYCPRP	0.0654
RRIRGRPPRLPRPRPRPEWMPRP	0.933
RRIRWRPPRLPRPRPRPHPYPRP	-0.195
RRIRGRPPRLPRPRPRPMGQPRP	0.651
RRIRFRPPRLPRPRPRPESTPRP	-0.00608
RRIRIRPPRLPRPRPRPEPAPRP	0.326
RRIRLRPPRLPRPRPRPTAVPRP	0.0335
RRIRFRPPRLPRPRPRPAEYPRP	-0.397
RRIRWRPPRLPRPRPRPMLIPRP	0.157
RRIRARPPRLPRPRPRPIEPPRP	0.0525
RRIRHRPPRLPRPRPRPQMCPRP	-0.0203
RRIRARPPRLPRPRPRPQRRPRP	0.366
RRIRTRPPRLPRPRPRPVFHPRP	-0.136
RRIRFRPPRLPRPRPRPAQNPRP	0.348
RRIRKRPPRLPRPRPRPYNEPRP	-0.254

Sequence	shrunken log2 fold change
RRIRLRPPRLPRPRPRPQEEPRP	-0.0207
RRIRSRPPRLPRPRPRPMKFPRP	-0.0589
RRIRKRPPRLPRPRPRPAIEPRP	0.018
RRIRHRPPRLPRPRPRPELNPRP	-0.098
RRIRSRPPRLPRPRPRPVRFPRP	0.488
RRIRDRPPRLPRPRPRPWMNPRP	-0.15
RRIRTRPPRLPRPRPRPIKQPRP	-0.0342
RRIRSRPPRLPRPRPRPFGLPRP	-0.0988
RRIRKRPPRLPRPRPRPSGLPRP	-0.0301
RRIRKRPPRLPRPRPRPMTTPRP	0.31
RRIRFRPPRLPRPRPRPGPLPRP	0.262
RRIRNRPPRLPRPRPRPFYAPRP	-0.281
RRIRNRPPRLPRPRPRPGPYPRP	-0.00784
RRIRTRPPRLPRPRPRPTSDPRP	0.0524
RRIRGRPPRLPRPRPRPPWMPRP	0.373
RRIRIRPPRLPRPRPRPKRTPRP	-0.198
RRIRQRPPRLPRPRPRPNAGPRP	0.0853
RRIRLRPPRLPRPRPRPRTQPRP	0.0772
RRIRMRPPRLPRPRPRPSTIPRP	-0.23
RRIRARPPRLPRPRPRPFCIPRP	-0.0716
RRIRMRPPRLPRPRPRPFEEPRP	0.0197
RRIRNRPPRLPRPRPRPYSEPRP	-2.12
RRIRFRPPRLPRPRPRPSRMPRP	0.311
RRIRSRPPRLPRPRPRPKSQPRP	0.164
RRIRKRPPRLPRPRPRPGYFPRP	-0.0741

Sequence	shrunken log2 fold change
RRIRIRPPRLPRPRPRPRLLPRP	-0.003
RRIRTRPPRLPRPRPRPSIIPRP	-0.647
RRIRLRPPRLPRPRPRPYSKPRP	-0.434
RRIRIRPPRLPRPRPRPNKGPRP	-0.137
RRIRQRPPRLPRPRPRPMLCPRP	-0.00319
RRIRWRPPRLPRPRPRPHKFPRP	-0.307
RRIRYRPPRLPRPRPRPQNQPRP	-0.562
RRIRTRPPRLPRPRPRPECNPRP	0.0232
RRIRLRPPRLPRPRPRPGHMPRP	-0.236
RRIRLRPPRLPRPRPRPSKVPRP	-0.117
RRIRFRPPRLPRPRPRPKRDPRP	0.362
RRIRGRPPRLPRPRPRPDDYPRP	0.662
RRIRTRPPRLPRPRPRPMRSPRP	0.232
RRIRTRPPRLPRPRPRPIGHPRP	-0.111
RRIRERPPRLPRPRPRPKVGPRP	0.0685
RRIRWRPPRLPRPRPRPKTSPRP	0.104
RRIRLRPPRLPRPRPRPAVWPRP	0.72
RRIRVRPPRLPRPRPRPNGMPRP	-0.32
RRIRERPPRLPRPRPRPGTNPRP	-0.361
RRIRVRPPRLPRPRPRPPWQPRP	0.44
RRIRPRPPRLPRPRPRPARNPRP	0.328
RRIRFRPPRLPRPRPRPSWSPRP	-0.557
RRIRTRPPRLPRPRPRPYNPPRP	-0.224
RRIRMRPPRLPRPRPRPNTFPRP	0.105
RRIRPRPPRLPRPRPRPRRYPRP	-0.0175
